To fix the notation:
T1: CrgA (Pseudomonas aeruginosa SJTD-1, UniProt Q9I4D7 1-304)
T1 sequence: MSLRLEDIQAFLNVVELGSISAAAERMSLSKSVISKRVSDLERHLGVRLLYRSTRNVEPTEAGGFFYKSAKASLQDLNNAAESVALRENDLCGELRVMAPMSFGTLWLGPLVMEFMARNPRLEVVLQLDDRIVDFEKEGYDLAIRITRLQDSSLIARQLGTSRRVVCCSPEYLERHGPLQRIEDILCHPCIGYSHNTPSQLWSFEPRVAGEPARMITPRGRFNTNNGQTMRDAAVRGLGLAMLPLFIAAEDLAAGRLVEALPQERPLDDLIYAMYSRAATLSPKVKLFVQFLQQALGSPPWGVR

B1: alkB2-b1 (dsDNA)
DNA 1: AGGACAATTGTCAGACAATCTAACAGGGATGGGGCAGGCCGGCCAAGGGAGATAAATACGAGGACTTCCC
DNA 2: GGGAAGTCCTCGTATTTATCTCCCTTGGCCGGCCTGCCCCATCCCTGTTAGATTGTCTGACAATTGTCCT
B2: alkB2-U46 (dsDNA)
DNA 1: AGGACAATTGTCAGACAATCTAACAAGATAAATACGAGGACTTCCC
DNA 2: GGGAAGTCCTCGTATTTATCTTGTTAGATTGTCTGACAATTGTCCT
B3: alkB2-b2 (dsDNA)
DNA 1: AGGACAATTGTCAGACAATCTAACAAGCGGCGGACAGAACGAAGATAAATACGAGGACTTCCC
DNA 2: GGGAAGTCCTCGTATTTATCTTCGTTCTGTCCGCCGCTTGTTAGATTGTCTGACAATTGTCCT

This data set addresses T1, CrgA. As to the kind of experiment: EMSA; EMSA: 20 mM Tris-HCl, 50 mM NaCl, 1 mM DTT, 0.1 mM EDTA, pH 7.5, 37 C 30 min, 4 pmol DNA in 20 uL, 8% native PAGE; footprinting at 25 C. The following applies: protein: recombinant; tags: His-tag (pET28a, Ni-NTA; NdeI/BamHI cloning, N-terminal tag likely); chain copies: 4; label: 5'-FAM on strand 2; blunt. Background: Mobility shift assays separate free from complexed probe on a gel.
Turning to B1, the binding result is “binds”.
For B2, the binding result is listed as “no binding”.
As for B3, the binding result is “binds”.

Source of the values: article PMC6422896, “CrgA Protein Represses AlkB2 Monooxygenase and Regulates the Degradation of Medium-to-Long-Chain n-Alkanes in Pseudomonas aeruginosa SJTD-1” (Frontiers in Microbiology, 2019).
